The results in this text go back to the nanobody polyreactivity screen of Harvey et al. (2022).

This series in a line: yeast display, Sf9 membrane polyspecificity reagent, FACS + sequencing; frameworks hold sequencing errors. In short, it runs like this:
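Nanobodies came from a synthetic yeast display library in Saccharomyces cerevisiae BJ5465, induced with galactose for 36–48 hours and stained for 1 hour at 4 °C with 10% biotinylated, detergent-solubilized Sf9 membrane reagent. Cells were enriched on streptavidin microbeads and then FACS-sorted, with low and high (top ~1%) gates set on anti-HA fluorescence for expression and streptavidin fluorescence for reagent binding. Each polyreactivity label reflects the gate a clone came from. Genes were amplified by colony PCR, sequenced by MiSeq 2 × 250 and filtered by CDR length.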
As to “QVQLVESGGGLVQAGGRLRLSCAASGRIISHYAMGWYRQAPGKEWELVAAISRSGGSTYYADSVKGRFTLSRDNAKNTVYLQMNSLKPEDTAVYYCAARSWPNIRCHDYWGQGTQVTVSS”, the “polyreactivity (PSR sort gate)” value is given as “high polyreactivity”.

On to “QVQLVESGGGLVQAGGSLRLSCAASGRTFGIKAMGWYRQAHGKERELVAVISFGDGGTYYADSVKGRFTISRDNAKNTVYLQMNSLKPEDTAVYYCATDYQSTSVWGGHFVINPYDYWGQGTQVTLSS”, for which the “polyreactivity (PSR sort gate)” value is “low polyreactivity”.

Consider “QDQLVESGGGLVQAGGSLRLSCAASGSTFTTNVMGWYRQAPGKERELVAAISWSSGSTYYADSVKGRFTISRDNAKNTDYLQMNSLKPEDTAVYYCAARLVIFYPYSRYYYWGQGTQVTVSS”, for which the “polyreactivity (PSR sort gate)” value is reported as “high polyreactivity”.

As to “QVQLVESGGGLVQAGGSLRLSCAASGFIFRVYAMGWYRQAPGKERELVAAISSSGSSTFYADSVKGRFTISRDNAKNTVYLQMNSLKPEDTAVYYCNAYVRRIVRSYYWGQGTQVTVSS”, the “polyreactivity (PSR sort gate)” value was “high polyreactivity”.

In the case of “QVQLVESGGGLVKAGGSLRISCAASGRTFGLYAMGWYRQAPGKERELVAAISWGGGRTYYADSVKGRFTISRDNAKNTVYLQMNSLNPEETAVYYCNAVYSPRYYVGGYDYWGQGTLVTVSS”, the “polyreactivity (PSR sort gate)” value is reported as “high polyreactivity”.

Turning to “QVQLVESGGGLVQAGGSLRLSSAASGRIFSIYAMGWYRQAPGKERELVAAITDRGGTTHYADSVKGRFTISRDYAKNTVYLQMNSLKPEDTAVYYCASDTYDYSSVEDFDYWGQGTQVTVSS”, the “polyreactivity (PSR sort gate)” value is recorded as “low polyreactivity”.

As to “QVQLVESAGGLVQAGGSLRLSCAASGRIFSYKAMGWYRQAPGKQRELVAAISYSGGRTYYADSVKGRFTISRDNAKNTVYLQMYSLKPEDTAVYYCAAEAHLAGFYRYYGGYGYDYWGQGTQVTVSS”, the “polyreactivity (PSR sort gate)” value is “high polyreactivity”.

Turning to “QVQLVESGGVLVQAGGSLRLSCAATGSIFQYYAMGWSRQAPGKERELVATNRRSGGSTYYADSVKGRFTISRDTAKHTVFLQMNSLKPEDTAVYYCARRLYTWETGGWRYDSWGQGTQVTVSS”, the “polyreactivity (PSR sort gate)” value is recorded as “high polyreactivity”.

In the case of “QVQLEESGGGLVQAGGSLRLSCAASGFTIIRYAMGWYRQAPGKERELVATISRRGASTYYADSVKGRFTISRANAKNTVYLQMNSLKPEDTAVYYCAKRTYSRKFRGAYNYWGQGTQVTVSS”, the “polyreactivity (PSR sort gate)” value is reported as “high polyreactivity”.

With “QVQLVESGGGLVQAGGSLRLSSAASGRIFSDYAMGWYRQAPGKERELVATITSGDSTNYADSVKGRFTISRDNAKNTVYLQMNSLKPEDTAVYYCNADRFADYDYWGQGTQVTVSS”, the “polyreactivity (PSR sort gate)” value is listed as “low polyreactivity”.

In the case of “QVQLVESGGGLVQAGGSLRLSCAASGRTFRLYAMGWYRQAHGKERELVARISRGGSTYYADSVKGRFTISRDNAKNTVYLQMNSLKPEDTAVYYCAAVAYALGFASKEDYWGQGTQVTVSS”, the “polyreactivity (PSR sort gate)” value is “high polyreactivity”.

Turning to “QVQLVESGGGLVQAGGSLRLSCSASGRTFWRYAMGWYRQAPGKERELVAAISSGGRTNYADSVKGRFTISRDNAKNTVYLQMNSLIPEDTAVYYCAADSYYGYGYWGQGTQVTVSS”, the “polyreactivity (PSR sort gate)” value was “high polyreactivity”.

With “QVQLVESGGGLVKAGGSLRLSCAASGRIFKIYAMGWYRQAPGKERELVAAISGRGGSTYYADSVKGRFTISRDNAKNTVYLQLNSLKPEDTAVYYCAAVGYGFSAYSTYDYWGQGTQVTVSS”, the “polyreactivity (PSR sort gate)” value is listed as “high polyreactivity”.

Consider “KVQLVESGAGLVQAGGSLRLSCAASGSTFAQYAMGWYRQAPGKERELVAAISRGGGSTYYADSVKGRFTISRDTAKNTVYLQMHSLKPEDTAVYYCAADPRYRVTLGFDYWGQGTQVTVSS”, for which the “polyreactivity (PSR sort gate)” value is “high polyreactivity”.

On to “QVQLEESGGGLVQAGGSLRLSCAASGSTFDTYAMGWYRPAPGKERELVAGITRRGGRTYYADSVKGRFTISRDTAKNTVYLQKYSLKPEDTAVYYCNAVPQRPVGKRDHWGQGTQVTVSS”, for which the “polyreactivity (PSR sort gate)” value is “high polyreactivity”.

Consider “QVQMQESGGGTVMAGGSLRLSCAASGTIFVRLDMGSYRQAPGKEREFVATIGSGSSTYYADSVKGSFTISRDNVNKSVYLQMNSLKPEDTAVYYCAVSAAEQCRDYYWDQGTQVTVSS”, for which the “polyreactivity (PSR sort gate)” value is “low polyreactivity”.

Turning to “QVQLVESGGGLVQAGGSLRLSCASSGRIFWRNTMGWYRQAPVKETEFVASINGSGGSTSYADSVKGRFTISRDNAMNTVYLQMISLKPEDTEVDYCATDVTYQDVQLDYWGQRTQVTVSS”, the “polyreactivity (PSR sort gate)” value is “low polyreactivity”.

As for “QVHLVESGGVLVQAGGSLSLSCAASGRTFIRNAMGWYRQAPGKERELVAAINSGGITNYADSVKGRFTISRDNAKNTVYLQMNSLKPEDTAVYYCNARQVLYGLYLRAYPYEYWGQGTQVTVSS”, the “polyreactivity (PSR sort gate)” value is listed as “low polyreactivity”.

Regarding “QVQLVESGGGLVQAGGSLRLSCAASGIIFVRYVMGWYRQAPGKERELVAAINWSGGSTYYAYSVKGRFTISRDNANNTVYLQMNSLKPEDTAVYYCAAGSARDDDYWGQGTQVPVSS”, the “polyreactivity (PSR sort gate)” value is reported as “high polyreactivity”.

Regarding “QVWLQESRGGLVQASGSLRLSCAASGTISRDIFMGWYRQAPGKEREFVATIAQGGITNYADSVKGRFTISRDNAKNTVYLLMISVKPGDTEVYYCAARDGNCYWFYYWGQGTQVTVSS”, the “polyreactivity (PSR sort gate)” value is “high polyreactivity”.

In the case of “QVQLVESGGGLVQAGGSLRLSCAASGSIFYYYTRGWSRQAPGKEMELVAAITSGGSTYYADSVKGRFTISRDNAKNTVYLQMNSLKPEDTAVYYCAAPIYYRLWKPGYEYWGQGTQVTVSS”, the “polyreactivity (PSR sort gate)” value is listed as “high polyreactivity”.

Turning to “QVQLVESGGGLVQAGGSLRLSCAASGRIFYYNTMGWYRQAPGKERELVAAISRSGGSTYYADSVKGRFTISRDNAKNTVYLQMNSLKPEDTAVYYCAAVTHRYGNSEFDYWGLGTQVTVSS”, the “polyreactivity (PSR sort gate)” value is on record as “high polyreactivity”.

Consider “QVQLVESGGGLVQAGGSLRLSCAASGSTFNNAMGWYRQPPGKERELVAAITRSGVRTYYADSVKGRFTISRDNAKNTVYLQMNSLKPEDTAVYYCAAGFQSRRYYAGYEYWGQGTQVTVSS”, for which the “polyreactivity (PSR sort gate)” value is reported as “high polyreactivity”.

As to “QVQLVESGGGLVQAGGSLRLSCAASGIIFDRYAKGWYRQAPGKERELVAAITYGGGSTYYADSVKGRFTISRDNAKNTVYLQMNSLKPEDTSVYYCAAVPRSGMYYWGQGTQVTVSS”, the “polyreactivity (PSR sort gate)” value is listed as “high polyreactivity”.

Take “QVQLVESGGGLVQAGGSLRLSCAASGRTFWRYAMGWYRQAPGKERELVAAITSGGGSTYYADSVKGRFTISRDNAKNTVSLQMNSLKPEDTAVYYCNRAGRGRSFKGDYWGQGTQVTVSS”: the “polyreactivity (PSR sort gate)” value is recorded as “high polyreactivity”.

Consider “QVQLVESGGGLVQAGGTLRLSCAASGIIFGYYAMGCYRQAPGKERELVAAINSGGSTYYADSVKGRFTISRDNAKNTVYLQMNSLKPEDTAVYYCKAKLYSKYWGQGTQVTVSS”, for which the “polyreactivity (PSR sort gate)” value is listed as “high polyreactivity”.

As to “QVQLVESGGGLVQAGGSLRLSCAASGIKLYYYAMGWYRQAPGKETEFVAAIAGSGGSTRYADSVKGRFTISRDNAKKTVYLQMNSLKPEDTAVYYFAARSRYGYITFDYWGQGTQVTVSS”, the “polyreactivity (PSR sort gate)” value is recorded as “high polyreactivity”.

Consider “QDQLVESGGGLVQAGGSLRLSCAASGRTFKRYAMGWYRQAPGKERELVAAITFSGGSTYYADSVKGRFTISRDNAKNTVYLQMNSLKPEDTAVYYCAAGYRWTGGLKYDFWGQGTQVTVSS”, for which the “polyreactivity (PSR sort gate)” value is recorded as “high polyreactivity”.

For the sequence “QVQLVESGGGLVQAGGSLRLSCAASGFTSNYYAMGGYRQAAGKERELVAAITTGGSTHYADSVQGRFTISRDNAKNTVYVQMNSLKPEDTAVYYCAADLKDTRLFPWFCEYDYWGQGTQVTVSS”, the “polyreactivity (PSR sort gate)” value is on record as “low polyreactivity”.

Regarding “QVQLGESGGGLVQAGGSLRLSCAGTGIIFARYVMGWEREAPGQDRELVAAIRRSGHSTYADSVKGRFTISRYNATNTLYLHMNSLKPEETAVYYCNAKGWISGRYSPYYRFDYWGQGTQVTVSS”, the “polyreactivity (PSR sort gate)” value is “high polyreactivity”.

Consider “QVQLVESGGGLVQAGGSLRLSCAASGSIFVPYAMGWYRQAPGKERELVAAISRRGGRTNYADSVKGRFTISRDNAKNTVYLQMNSLKPEDTAVYYCAKYPIYYGLTRYGYWGHGTQVTVSS”, for which the “polyreactivity (PSR sort gate)” value is “high polyreactivity”.

Take “QVQLVESGGGLVQAGGSLRLSCAASGSTFFGYAMGWYRQAPGKERELVAAITSGGSTNYADSVKGRFTISRDNAKNTVYLQMNRLIPDDTAVYFCARRWYRGYGYWGQGTQVTVSS”: the “polyreactivity (PSR sort gate)” value is reported as “high polyreactivity”.

For the sequence “QVQLQESGGGLVQAGGSLRLSCAASGTIFTARIMGWYRQAPGKERELVATITDGGNTNHADSVKCRFTISRDNAKITVYLQMNSLKPEDAAVYYCAAGEVDNDTLLYWGQGSQVTVSS”, the “polyreactivity (PSR sort gate)” value was “low polyreactivity”.

“QVPLVESGGGLVQAGGSLRLSCAASGIIFGKYTMGWYRQAPGKERELVAAISKRGGSTYYADSVKGRFTISRDNAKNTVYLQMYSLKRVDTAVYYCAAERISSYDYWGQGTQVTVSS”: the “polyreactivity (PSR sort gate)” value is given as “high polyreactivity”.

For “QVQLVESGGGIVQAGGSLRLSCAASGRTFMLYAMGWYRQAPGKERELVASIDRNGGRTYYADSVKGRFTISRDNAKNTVYLQMNSLIPEDTAVYYCAARWYDYGYWGQGTQVTGSS”, the “polyreactivity (PSR sort gate)” value is listed as “high polyreactivity”.

As for “QVQLVESGGGLVQAGGSLRLSCAASGIFASYAMGWYRQAPGKERELVAAIRSSGGRTYYADSVKGRFTISRDNAKNTFYLQMNSLKPEDTAVYYCAARYYTYDGYSKYDFWGQGTQVTVSS”, the “polyreactivity (PSR sort gate)” value is listed as “high polyreactivity”.

As to “QVQLVESGGGLVQAGGSLRLSCAASGRIFVHYVMGWYRQAPGKERELVAAISRSGGRTYYADSVKGRFTISRDNAKNTVYLQMNSLKAEDTAVYYCATDASTYKYDYWGQGSQVTVSS”, the “polyreactivity (PSR sort gate)” value was “high polyreactivity”.

In the case of “QVQLVESGGGLVQAGGSLRLSCAASGRTFYHNAMGWYRQAPGKERELVAAITSSGGRTYYADSVKGRFTISRDNAKNTVYLQMNSLKPEDTAVYYCNARYLGGQVRYWYYNKYDYWGQGTQVTVSS”, the “polyreactivity (PSR sort gate)” value is listed as “high polyreactivity”.

In the case of “QVQLVESGGGLVQAGGSLRLSCAASGSTFVYYAMGWYRQAPGKERELVAAIRNGDGTNYADSVKGRFTISRDNAKNTVYLQMNSLKPEDTAVYYCAAPQGEYFYVYEFDYWGQGTQVTVSS”, the “polyreactivity (PSR sort gate)” value is “low polyreactivity”.

Consider “QVQLVESGGGLVQAGGSLRLSCAASGSIFNYYAMGWYRQAPGKERELVAAISTSGGRTYYADSVKGRFTISRDNAKKTVYLQMNSLKPEDTAVYYCNAVSRTRAGAGDYWGQGTQVTVSS”, for which the “polyreactivity (PSR sort gate)” value is on record as “high polyreactivity”.

Consider “QVQLVESGGGLVQAGGSLRLSCAASGRTFATYAMGWYRPAPGKERELVAAISRSGSTTYYADSVKGRFTISRDNAKNTVYLQMNSLKPEDTAVYYCNAKFRKADYDYWGQGTQVTVSS”, for which the “polyreactivity (PSR sort gate)” value was “high polyreactivity”.
